Measured values published in patent US20110028686A1, “Protein binding miniature proteins” (Yale University, priority 2000, published 2011).
Square brackets hold non-standard residues; d marks the D form. Primed or numbered codes have the meaning given here. Ends that are not written are not given here. acetamidofluorescein″ = acetamidofluorescein (5-iodoacetamidofluorescein attached to the C-terminal Cys); pS = N[C@@H](COP(=O)(O)O)C(=O)O; Sar = CNCC(=O)O

Columns and labels:
FP with CBP KIX = substrate: CBP KIX, wild type (Example 20) (UniProt P45481); test: FP with CBP KIX
[1] = substrate: CBP KIX, wild type (Example 20) (UniProt P45481); test: FP, fluorescein-labelled PPKID4^P variant titrated with CBP KIX
GST-KIXY650A = GST-KIXY650A (UniProt P45481); test: FP, 25 nM fluorescein-labelled peptide titrated with GST-KIXY650A, 25 C
Chain of GST-KIXY650A (P45481 586-665 Y650A): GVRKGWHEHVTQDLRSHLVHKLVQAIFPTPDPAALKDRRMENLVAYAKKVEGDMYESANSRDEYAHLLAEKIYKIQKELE

Chain of CBP KIX, wild type (Example 20) (P45481 586-665 limits assumed): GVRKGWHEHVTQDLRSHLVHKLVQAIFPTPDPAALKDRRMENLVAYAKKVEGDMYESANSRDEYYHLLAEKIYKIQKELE

G[Sar]SQPTYPGDDAPVRRL[pS]FFYILLDLYLDAPGVC(acetamidofluorescein″)-NH2 (designed binder) [PPKID4^P P2Z] gave a ΔΔG relative to wild type PPKID4^P (FP with CBP KIX) of 0.753 kJ/mol and a Kd [1] of 0.83 µM.

With GPSQ[Sar]TYPGDDAPVRRL[pS]FFYILLDLYLDAPGVC(acetamidofluorescein″)-NH2 (designed binder) [PPKID4^P P5Z] the ΔΔG relative to wild type PPKID4^P (FP with CBP KIX) was 0.669 kJ/mol and the Kd [1] was 0.8 µM.

Binder GPSQPTY[Sar]GDDAPVRRL[pS]FFYILLDLYLDAPGVC(acetamidofluorescein″)-NH2 (designed binder) [PPKID4^P P8Z] has a ΔΔG relative to wild type PPKID4^P (FP with CBP KIX) of 0.628 kJ/mol and a Kd [1] of 0.78 µM.

B1: KID-AB^P (peptide)
peptide: TDSQKRREILSRRP[pS]YRKILNDLSSDAPGVC-NH2
modifications: also: C-terminal Cys acetamidofluorescein-labelled in direct assays, unlabelled as competitor
B1 showed a fold less stable than the wild type GST-KIX complex (GST-KIXY650A) of 15 fold.
